Reference: paper PMC3172256

Target: CD16.7-PC1-WT (human) (UniProt P08637)
Assay: co-IP

“Rab8, human, endogenous (from UniProt P61006 1-207) (natural protein)” was tested, and the fold coprecipitation above the background of untransfected cell lysates was 2 fold.
“Rab11, human, endogenous (from UniProt P62491 1-216) (natural protein)” showed a fold coprecipitation above the background of untransfected cell lysates of 1.3 fold.
